Assay results published in the DeepSol protein solubility set.

assay: soluble on expression in E. coli; label from the status in PepcDB or PDB records

| Sequence | soluble on expression in E. coli |
| --- | --- |
| MELDGKAPSHRNLNVQTWSTAEGAKVLFVEARELPMFDLRLIFAAGSSQDGNAPGVALLTNAMLNEGVAGKDVGAIAQGFEGLGADFGNGAYKDMAVASLRSLSAVDKREPALKLFAEVVGKPTFPADSLARIKNQMLAGFEYQKQNPGKLASLELMKRLYGTHPYAHASDGDAKSIPPITLAQLKAFHAKAYAAGNVVIALVGDLSRSDAEAIAAQVSAALPKGPALAKIEQPAEPKASIGHIEFPSSQTSLMLAQLGIDRDDPDYAAVSLGNQILGGGGFGTRLMSEVREKRGLTYGVYSGFTPMQARGPFMINLQTRAEMSEGTLKLVQDVFAEYLKNGPTQKELDDAKRELAGSFPLSTASNADIVGQLGAMGFYNLPLSYLEDFMRQSQELTVEQVKAAMNKHLNVDKMVIVSAGPTVAQKPLEHHHHHH | soluble |
| MGSSHHHHHHSSGLVPRGSHMASMGRIESAFDLGFIRGMTFGFVGQHGTWGTDEARASMRALAEQPFNWVTLAFAGLMEHPGDPAIAYGPPVTVSDDEIASMAELAHALGLKVCLKPTVNCRDGTWRGEIRFEKEHGPDLESWEAWFGSYSDMMAHYAHVAKRTGCEMFCVGCEMTTAEPHEAMWRETIARVRTEYDGLVTYNCNHGREEHVRFWDAVDLISSSAYYPIDRWRDRVPVLREVAEAHEKPLFFMEVGCPSRSGSGACPWDYRHPGAVCLDEQARFYEAMFAAMPDEPWFKGYMLWEWPWKLYPREAASEDGSYCIYGKPAEDVVARAFSAIANR | soluble |
| MDKLSLEEKVDLLIENGIRILNKAYALEKKPVDMGHGVLLYPSEFHLIETAGKNPAENLTSISSRLGVTKGAISQMVKKLEKKGLVKKVRVPGNKKDVMLELTDFGREAFEWHKSLHESMEAGIRKELEGMSSSEMETFLRVYGHLERMLDRCMERYR | not soluble |
| MATSGFKHLVVVKFKEDTKVDEILKGLENLVSQIDTVKSFEWGEDKESHDMLRQGFTHAFSMTFENKDGYVAFTSHPLHVEFSAAFTAVIDKIVLLDFPVAAVKSSVVATP | soluble |
| MIKILQTKSGVTKFQVLIEIAAHQPNVRQKEIAAKIGITPQAVSEYIKELVNDGLIVTEGRVRYRITKEGVEWVLENATEMKQYARFVMEDIISHVSTWTAITREEVKEGQQVYLKMDHGLLYVSSREVTGASGAIISDAAEGEDVGVTSLKGLIDLENATITICKVPRVERGGSRKVDLERLKMLADAKPYIAAIGVESLIALRKIGISPNVMFGTNESVIEAAYHGLSSLVVSVDEQVSALLNRLETENLEYELVDLTVE | not soluble |
| MKEGKWFASANNQNKFLDPRERGNILNYLKVCLLLARAVRRMHAAGLCHSDLSYKNVLIDPEQGHACIIDVDGLVVPGKFPPDVVGTPDFIAPEVVKTSHLLKEDPQRILPNITTDRHALSVLIYMYLFYRHPLRGGKIHDMDDEVRDESLAMGERALFIEHPTDRSNAVKLNQVKPSSLPWADPQKVPYTIMGPYLTQLFEKAFIDGLHDPSKRPTADEWETALVKTVDLIQPCQNTACEQKWYVFSGKTKPVCPYCLEHHHHHH | not soluble |
| MSLKQLFLIIGAPGSGKTTDAELIAKNNSETIAHFSTGDLLRAESAKKTERGLLIEKFTSQGELVPLEIVVETILSAIKSSGKGIILIDGYPRSVEQMQALDKELNAQNEVILKSVIEVEVSENTAKERVLGRSRGADDNEKVFHNRMRVFLDPLGEIQNFYKNKKVYKAIDGERSIEEIVGEMQEYILSFGNEGHHHHHH | soluble |
| MSPENPFLNHEKKEQERQAKRDAVLLAAVKIFNEQGFHSTSLDDVAKSLGISKPTIYHYLGNKEQVLLTCVEIGLQQLIEAAKDVEKQSISGFEKLRRFLFLYGCRNLDDFGRCVILTHDDALSKEGLVKFKALKRVVHEALLNIIRDAQLDQSINAEHDPKILAATLTGAINWSAKWYNPNGVLSKEETIQKMVDILTYGFEKK | not soluble |
| MDMKRRIHLELRNRTPAAVRELVLDNCKAMDGKIEGLTDEFVNLEFLSLISVGLFSVSDLPKLPKLKKLELSENRIFGGLDRLAEELPSLTHLNLSGNNLKDISTLEPLKRLDCLKSLDLFGCEVTNRSDYRETVFRLLPQLSYLDGYDREDQEAPDSDVEVDSVEEAPDSDGEVDGVDKEEEDEEGEDEEEEEDEDGEEEEDEDEEDEDEDEDVEGEDDEDEVSGEEEEFGHDGEVDEDEEDEDEDEDEEEEESGKGEKRKRETDDEGEDD | soluble |
| MATAKKITIHDVALAAGVSVSTVSLVLSGKGRISTATGERVNAAIEELGFVRNRQASALRGGQSGVIGLIVRDLSAPFYAELTAGLTEALEAQGRMVFLLHGGKDGEQLAQRFSLLLNQGVDGVVIAGAAGSSDDLRRMAEEKAIPVIFASRASYLDDVDTVRPDNMQAAQLLTEHLIRNGHQRIAWLGGQSSSLTRAERVGGYCATLLKFGLPFHSDWVLECTSSQKQAAEAITALLRHNPTISAVVCYNETIAMGAWFGLLKAGRQSGESGVDRYFEQQVSLAAFTDATPTTLDDIPVTWASTPARELGITLADRMMQKITHEETHSRNLIIPARLIAAK | not soluble |
| MGSDKIHHHHHHMEPVYFTSPTRGRLTEDEMFADMMQFVDANPEAQYKIIIGSDSQARVRTCFVTAVIVHQVGRGARYYYRKKYQRKITSLRQKIFYETALSLETASFIAQRLAANGHADLNVEIHLDIGPNGETRDLIREIVGMVVGSGFAAKIKPYSCGASKVADKYTKSG | not soluble |
| MGSDKIHHHHHHMKFMKSLEPLNNHDETAAGDAMRGPSGGGNSASILNEAENILRDYYGGAIESLFIERLVVGVFFTGVKLSNGCGGVAYTPPETIRNASRRILRGSPSAIRGKSADVVISGKIPSPFADVIRLAAINALSVPFFQDGRYDFEKSDDLSDVSHLFTGRRVCMVGAIVPLLKRFKKMGVSEIKVIDRKKDSQIEVELACGEFLSPEQTAETIAQCETAVFTGAAVANGTIEHLLRLVPKEAAVAVVGPTAGFIPDPLFRRNVALVGTAMVTDIAAALDIIAEGGGAYPLFGRCVKKINILNRKRIEQLKPGSKTA | not soluble |
| MTRGPIFLNVGISYGLPRTKLPAAVSFRKWVAATLQGRIRKADLAIRIVDEKEGRALNYHYRNKDYATNVLSFPAQLPEPLPKALKIPLLGDIVMCAPVIAREAAEQGKSLSAHYAHLTVHGTLHLLGWNHEDHQEADAMEQLEREILANLGISDPYLEEY | soluble |
| MSSLNKLAIDQLNLAGKRVLIRVDFNVPLKDGKITNNQRIAAAVPTIQHALSNGAKSVVLMSHLGRPDGRRQDKYTLKPVAEELKALLKKDVLFLDDCVGSEVEAACADPAPGSVILLENLRYHLEEEGKGVDASGAKVKADSAAVKKFRESLTKLGDIYVNDAFGTAHRAHSSMVGVEHSQRASGFLLKNELSYFSKALDNPARPFLAILGGAKVADKIQLIKNLLDKVNEMIIGGGMAYTFLKVAQGVKIGNSLYDEEGAKIVNELLEAAKAKGVQIHLPVDFVIADKFAEDATSKTVTAEEGVPDGHMGLDVGPESSKIFAAAIQRAKTIVWNGPAGVFEFDKFATGTKSLMDEVVKATAAGAITIIGGGDTATAAKKYNTEDKVSHVSTGGGASLELLEGKVLPGVDALSPAQ | soluble |
| PRAAGHSEEVLEREASFSLTTIDGEVISLNNVGGDVVILWFMAAWCPSCVYMADLLDRLTEKYREISVIAIDFWTAEALKALGLNKPGYPPPDTPEMFRKFIANYGDPSWIMVMDDGSLVEKFNVRSIDYIVIMDKSSNVLYAGTTPSLGELESVIKSVQGG | soluble |
| VTGFGLRLAEAKARRGPLCLGIDPHPELLRGWDLATTADGLAAFCDICVRAFADFAVVKPQVAFFESYGAAGFAVLERTIAELRAADVLVLADAKRGDIGATMSAYATAWVGDSPLAADAVTASPYLGFGSLRPLLEVAAAHGRGVFVLAATSNPEGAAVQNAAADGRSVAQLVVDQVGAANEAAGPGPGSIGVVVGATAPQAPDLSAFTGPVLVPGVGVQGGRPEALGGLGGAASSQLLPAVAREVLRAGPGVPELRAAGERMRDAVAYLAAV | not soluble |
| MAKPPPGKSSGRGSINDDEGKIEVESGDIPHVTDTEIKDAAEKVRETAVSKGKSERDKAEGDYTIMNPDSMIRPDFASDEEIEEQAKWIPGRFEPYITPNPLDIETLVKRADTIATVFNCSGNNLTDSRLSGAYEIAMTRSDEWEGKAGENFEKYMASLPTIMGNHGKVANMLQIEAQKMIELYKNRRKGAKDIADQAVKAIEAIDDSKGEGLE | not soluble |
